Data reported in article PMC6778226 (Proceedings of the National Academy of Sciences of the …, 2019).
Like-named read-outs stand apart in the source and are kept apart here.

Columns and labels:
[1] = molecular target: T1, voltage-dependent anion channel 1 (human, UniProt P21796 1-283, amine reactive RED-NHS NT-647 dye (for MST)); assay: MST
[2] = molecular target: T1, voltage-dependent anion channel 1; assay: MST; remark: listed apart in the source

T1 sequence (P21796 whole entry): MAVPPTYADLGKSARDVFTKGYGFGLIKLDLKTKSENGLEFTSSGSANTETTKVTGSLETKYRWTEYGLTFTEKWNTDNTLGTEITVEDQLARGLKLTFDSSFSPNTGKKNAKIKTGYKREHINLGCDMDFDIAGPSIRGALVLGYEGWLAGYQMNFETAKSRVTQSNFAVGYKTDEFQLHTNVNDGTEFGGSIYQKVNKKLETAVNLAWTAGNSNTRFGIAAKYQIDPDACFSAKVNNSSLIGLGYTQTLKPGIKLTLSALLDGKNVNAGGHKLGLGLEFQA

B1: mitoNEET (natural protein, human)
chain: RFYVKDHRNKAMINLHIQKDNPKIVHAFDMEDLGDKAVYCRCWRSKKFPFCDGAHTKHNEETGDNVGPLIIKKKET
- Kd [1]: 210 ± 15 nM
- Kd [2]: 76 ± 2 nM
